This note sets out measurements from US20160368985A1.

In one experiment the target is human CD3ε (human) (UniProt P07766). Nature of the experiment: BIACORE and Scatchard; monovalent KD of anti-CD3 arm; legend prints 2.5 nM. In general terms: Surface plasmon resonance follows binding to a sensor surface in real time, without labels.
Experiment [1] addresses truncated human FcRH5 (deletion of amino acids 1-744) with N-terminal gD tag (human) (UniProt Q96RD9). As to the kind of experiment: cell-based or functional assay.

Sequence of human CD3ε (human) (P07766 22-126): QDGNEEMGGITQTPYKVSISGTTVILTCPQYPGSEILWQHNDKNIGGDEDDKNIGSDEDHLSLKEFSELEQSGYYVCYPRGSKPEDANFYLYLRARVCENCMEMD
Sequence of truncated human FcRH5 (deletion of amino acids 1-744) with N-terminal gD tag (human) (Q96RD9 745-977, stated change not applied): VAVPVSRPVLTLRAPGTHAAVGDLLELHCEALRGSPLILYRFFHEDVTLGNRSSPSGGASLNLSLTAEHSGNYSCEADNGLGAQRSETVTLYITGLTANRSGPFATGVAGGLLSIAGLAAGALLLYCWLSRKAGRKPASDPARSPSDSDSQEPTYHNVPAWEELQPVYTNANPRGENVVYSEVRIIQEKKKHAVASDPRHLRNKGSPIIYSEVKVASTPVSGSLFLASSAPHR

Take anti-CD3 antibody huUCHT1.v9: the Kd (usually the constant that tells how readily two partners part at equilibrium) with human CD3ε (human) was 2 nM. In the case of “anti-gD/UCHT1.v9 TDB (bispecific antibody)”, the killing of cells expressing the truncated target, EC50 in experiment [1] is 0.19 nM.
